Bridge positions count the residues as written; N and C are the ends. Square brackets hold non-standard residues; d marks the D form. Ends that are not written are not given here. * marks the point of attachment. NMeBn(CF3)2 = C-terminal N-methyl bis(trifluoromethyl)benzyl amide; NH(3,5-(CF3)2-benzyl) = FC(F)(F)c1cc(CN*)cc(C(F)(F)F)c1; OBzl(3,5-(CF3)2) = FC(F)(F)c1cc(CO*)cc(C(F)(F)F)c1; OBn(OMe)2 = C-terminal OBn(OMe)2 ester; Dmt = Cc1cc(O)cc(C)c1C[C@H](N)C(=O)O; NMe(benzyl) = CN(Cc1ccccc1)*

Sequence of µ opioid receptor of the guinea pig isolated ileum (P97266 whole entry): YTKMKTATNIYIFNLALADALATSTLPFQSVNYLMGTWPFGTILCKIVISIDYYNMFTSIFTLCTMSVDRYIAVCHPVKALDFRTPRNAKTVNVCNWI
T1 sequence (P41143 whole entry, stated change not applied): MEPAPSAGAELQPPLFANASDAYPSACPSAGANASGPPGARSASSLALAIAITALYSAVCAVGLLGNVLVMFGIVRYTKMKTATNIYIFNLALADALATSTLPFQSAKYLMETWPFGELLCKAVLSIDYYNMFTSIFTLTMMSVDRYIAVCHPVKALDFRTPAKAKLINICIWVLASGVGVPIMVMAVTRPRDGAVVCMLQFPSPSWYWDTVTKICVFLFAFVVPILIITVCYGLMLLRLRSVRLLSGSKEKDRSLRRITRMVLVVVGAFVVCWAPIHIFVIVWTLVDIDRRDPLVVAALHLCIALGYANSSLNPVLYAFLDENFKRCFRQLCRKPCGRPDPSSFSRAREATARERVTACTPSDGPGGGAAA

The first assay addresses T1, human δ opioid receptor (human, UniProt P41143 1-372). Put plainly: cell-based or functional assay.
For the molecule Y[dA]GFMPLW-{NH(3,5-(CF3)2-benzyl)} [TyrDAlaGlyPheMetProLeuTrpNHBn(CF3)2 (TY027)], the “GTP binding hDOR EC50” value came to 8.6 nM and the “GTP binding hDOR Emax” value is 58%.

Take Y[dA]GFMPLW-{NMe(benzyl)} [TyrDAlaGlyPheMetProLeuTrpNMeBn (TY026)]: the “GTP binding hDOR EC50” value was found to be 8.9 nM and the “GTP binding hDOR Emax” value is 93%.

Consider Y[dA]GFMPLW-{NMeBn(CF3)2} [TyrDAlaGlyPheMetProLeuTrpNMeBn(CF3)2 (TY028)], for which the “GTP binding hDOR EC50” value was found to be 12.9 nM and the “GTP binding hDOR Emax” value stood at 59%.

As to [Dmt][dA]GFMPLW-{NH(3,5-(CF3)2-benzyl)} [DmtDAlaGlyPheMetProLeuTrpNHBn(CF3)2 (TY032)], the “GTP binding hDOR EC50” value was 1.2 nM and the “GTP binding hDOR Emax” value amounted to 24%.

YAGFMPLW (D-Ala at 2; Met(O) (oxidized methionine) at 5; C-terminal O-3,5-Bn(CF3)2 ester) [TyrDAlaGlyPheMet(O)ProLeuTrpOBn(CF3)2 (TY023)]: the “GTP binding hDOR Emax” value amounted to 52.8%.

For Y[dA]GFMPLW-{OBn(OMe)2} [TyrDAlaGlyPheMetProLeuTrpOBn(OMe)2 (TY030)], the “GTP binding hDOR EC50” value was 0.8 nM and the “GTP binding hDOR Emax” value came out at 61%.

As for Y[dA]GFMPLW-{OBzl(3,5-(CF3)2)} [TyrDAlaGlyPheMetProLeuTrpOBn(CF3)2 (TY005)], the “GTP binding hDOR EC50” value was determined as 2.9 nM and the “GTP binding hDOR Emax” value came to 47.6%.

As for Y[dC]GFCPLW-{NH(3,5-(CF3)2-benzyl)} (disulfide 2-5, also called [D-Cys2, Cys5]) [Tyr[DCysGlyPheCys]ProLeuTrpNHBn(CF3)2 (TY039)], the “GTP binding hDOR EC50” value was 50.9 nM and the “GTP binding hDOR Emax” value was 37%.

For a further assay, the target named is rat µ opioid receptor (rat, UniProt P33535 1-398). Kind of assay: cell-based or functional assay.
Sequence of rat µ opioid receptor (P33535 whole entry): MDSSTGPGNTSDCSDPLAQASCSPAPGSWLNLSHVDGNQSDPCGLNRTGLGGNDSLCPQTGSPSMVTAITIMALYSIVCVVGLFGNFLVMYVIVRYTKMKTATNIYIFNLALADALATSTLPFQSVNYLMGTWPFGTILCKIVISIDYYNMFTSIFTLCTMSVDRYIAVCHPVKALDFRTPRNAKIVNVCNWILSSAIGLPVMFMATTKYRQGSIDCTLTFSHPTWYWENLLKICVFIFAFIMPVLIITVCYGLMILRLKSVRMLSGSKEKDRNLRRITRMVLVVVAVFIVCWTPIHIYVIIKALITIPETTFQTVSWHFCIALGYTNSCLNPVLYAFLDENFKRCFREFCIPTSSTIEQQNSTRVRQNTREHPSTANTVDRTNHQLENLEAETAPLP
In the case of [Dmt][dA]GFMPLW-{NH(3,5-(CF3)2-benzyl)} [DmtDAlaGlyPheMetProLeuTrpNHBn(CF3)2 (TY032)], the “GTP binding rMOR EC50” value turned out to be 62 nM and the “GTP binding rMOR Emax” value amounted to 74%.

Regarding Y[dA]GFMPLW-{OBzl(3,5-(CF3)2)} [TyrDAlaGlyPheMetProLeuTrpOBn(CF3)2 (TY005)], the “GTP binding rMOR Emax” value was 45.6%.

Consider Y[dC]GFCPLW-{NH(3,5-(CF3)2-benzyl)} (disulfide 2-5, also called [D-Cys2, Cys5]) [Tyr[DCysGlyPheCys]ProLeuTrpNHBn(CF3)2 (TY039)], for which the “GTP binding rMOR EC50” value amounted to 118 nM and the “GTP binding rMOR Emax” value is 20%.

The next assay addresses µ opioid receptor of the guinea pig isolated ileum (guinea pig, UniProt P97266 1-98). Kind of assay: cell-based or functional assay.
For the molecule Y[dA]GFMPLW-{NH(3,5-(CF3)2-benzyl)} [TyrDAlaGlyPheMetProLeuTrpNHBn(CF3)2 (TY027)], the “GPI/LMMP opioid(mu) agonist IC50” value came to 488 nM.

For Y[dA]GFMPLW-{NMeBn(CF3)2} [TyrDAlaGlyPheMetProLeuTrpNMeBn(CF3)2 (TY028)], the “GPI/LMMP opioid(mu) agonist IC50” value came out at 971 nM.

For the molecule [Dmt][dA]GFMPLW-{NH(3,5-(CF3)2-benzyl)} [DmtDAlaGlyPheMetProLeuTrpNHBn(CF3)2 (TY032)], the “GPI/LMMP opioid(mu) agonist IC50” value was 18.6 nM.

For the molecule YAGFMPLW (D-Ala at 2; Met(O) (oxidized methionine) at 5; C-terminal O-3,5-Bn(CF3)2 ester) [TyrDAlaGlyPheMet(O)ProLeuTrpOBn(CF3)2 (TY023)], the “GPI/LMMP opioid(mu) agonist IC50” value came to 154 nM.

In the case of Y[dA]GFMPLW-{OBzl(3,5-(CF3)2)} [TyrDAlaGlyPheMetProLeuTrpOBn(CF3)2 (TY005)], the “GPI/LMMP opioid(mu) agonist IC50” value is 359 nM.

As for Y[dC]GFCPLW-{NH(3,5-(CF3)2-benzyl)} (disulfide 2-5, also called [D-Cys2, Cys5]) [Tyr[DCysGlyPheCys]ProLeuTrpNHBn(CF3)2 (TY039)], the “GPI/LMMP opioid(mu) agonist IC50” value came to 10.1 % at 1 uM.

In the next assay the target is guinea pig NK1 receptor (guinea pig, UniProt P30547 1-407). Kind of assay: cell-based or functional assay.
Sequence of guinea pig NK1 receptor (P30547 whole entry): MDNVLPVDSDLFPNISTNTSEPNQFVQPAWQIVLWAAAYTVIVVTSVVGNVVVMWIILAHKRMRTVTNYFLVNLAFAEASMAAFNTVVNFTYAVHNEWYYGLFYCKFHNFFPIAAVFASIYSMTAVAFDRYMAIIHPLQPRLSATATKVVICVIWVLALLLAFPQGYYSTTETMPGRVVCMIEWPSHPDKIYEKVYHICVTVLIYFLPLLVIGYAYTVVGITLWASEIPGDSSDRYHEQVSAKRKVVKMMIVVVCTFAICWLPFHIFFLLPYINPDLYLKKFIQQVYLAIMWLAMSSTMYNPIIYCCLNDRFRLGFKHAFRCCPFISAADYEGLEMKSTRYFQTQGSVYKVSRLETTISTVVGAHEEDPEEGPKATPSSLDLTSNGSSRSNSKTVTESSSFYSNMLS
For [Dmt][dA]GFMPLW-{NH(3,5-(CF3)2-benzyl)} [DmtDAlaGlyPheMetProLeuTrpNHBn(CF3)2 (TY032)], the “GPI/LMMP SP antagonist Ke” value was found to be 7.5 nM.

Take YAGFMPLW (D-Ala at 2; Met(O) (oxidized methionine) at 5; C-terminal O-3,5-Bn(CF3)2 ester) [TyrDAlaGlyPheMet(O)ProLeuTrpOBn(CF3)2 (TY023)]: the “GPI/LMMP SP antagonist Ke” value was determined as 7.8 nM.

Take Y[dA]GFMPLW-{OBn(OMe)2} [TyrDAlaGlyPheMetProLeuTrpOBn(OMe)2 (TY030)]: the “GPI/LMMP SP antagonist Ke” value came to 4.1 nM.

For the molecule Y[dA]GFMPLW-{OBzl(3,5-(CF3)2)} [TyrDAlaGlyPheMetProLeuTrpOBn(CF3)2 (TY005)], the “GPI/LMMP SP antagonist Ke” value was 24.7 nM.

On to Y[dC]GFCPLW-{NH(3,5-(CF3)2-benzyl)} (disulfide 2-5, also called [D-Cys2, Cys5]) [Tyr[DCysGlyPheCys]ProLeuTrpNHBn(CF3)2 (TY039)], for which the “GPI/LMMP SP antagonist Ke” value came out at 434 nM.

In a further assay the target is T1, human δ opioid receptor. Kind of assay: radioligand competition vs [3H]DPDPE, membranes of hDOR cells. (Loss of bound radioactivity is the signal in a displacement assay; it reports binding, not function.)
Broadly, the Ki is the equilibrium dissociation constant of an inhibitor or competing ligand from its target. Consider Y[dA]GFMPLW-{NMe(benzyl)} [TyrDAlaGlyPheMetProLeuTrpNMeBn (TY026)], for which affinity was put at a Ki of 0.32 nM.

Y[dA]GFMPLW-{NMeBn(CF3)2} [TyrDAlaGlyPheMetProLeuTrpNMeBn(CF3)2 (TY028)] returned a Ki of 2.15 nM.

The molecule [Dmt][dA]GFMPLW-{NH(3,5-(CF3)2-benzyl)} [DmtDAlaGlyPheMetProLeuTrpNHBn(CF3)2 (TY032)] displayed a Ki of 0.12 nM.

Turning to YAGFMPLW (D-Ala at 2; Met(O) (oxidized methionine) at 5; C-terminal O-3,5-Bn(CF3)2 ester) [TyrDAlaGlyPheMet(O)ProLeuTrpOBn(CF3)2 (TY023)], the Ki was found to be 5.08 nM.

Molecule Y[dA]GFMPLW-{OBn(OMe)2} [TyrDAlaGlyPheMetProLeuTrpOBn(OMe)2 (TY030)] returned a Ki of 0.93 nM.

Y[dA]GFMPLW-{OBzl(3,5-(CF3)2)} [TyrDAlaGlyPheMetProLeuTrpOBn(CF3)2 (TY005)] yielded an inhibition constant (Ki) of 2.8 nM.

Turning to Y[dC]GFCPLW-{NH(3,5-(CF3)2-benzyl)} (disulfide 2-5, also called [D-Cys2, Cys5]) [Tyr[DCysGlyPheCys]ProLeuTrpNHBn(CF3)2 (TY039)], the Ki came out at 10.7 nM.

For the next assay, the target named is T2, human NK1 receptor (human, UniProt P25103 1-407).
T2 construct: whole, on cells; Used as membrane preparations of transfected CHO cells; also called hNK1; human neurokinin-1 receptor
T2 sequence (P25103 whole entry): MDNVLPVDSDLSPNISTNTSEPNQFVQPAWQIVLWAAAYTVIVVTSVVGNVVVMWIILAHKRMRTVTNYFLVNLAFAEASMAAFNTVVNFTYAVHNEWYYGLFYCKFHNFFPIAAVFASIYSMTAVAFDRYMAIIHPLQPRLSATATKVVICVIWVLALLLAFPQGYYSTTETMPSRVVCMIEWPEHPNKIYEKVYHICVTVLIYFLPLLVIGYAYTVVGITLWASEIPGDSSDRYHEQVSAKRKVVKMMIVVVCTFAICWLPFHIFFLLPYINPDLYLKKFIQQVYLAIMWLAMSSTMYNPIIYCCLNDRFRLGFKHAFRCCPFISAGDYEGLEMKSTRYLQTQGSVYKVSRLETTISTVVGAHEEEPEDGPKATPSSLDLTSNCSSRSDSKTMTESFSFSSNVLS
Put plainly: radioligand competition vs [3H]substance P, membranes of hNK1 CHO cells.
[Dmt][dA]GFMPLW-{NH(3,5-(CF3)2-benzyl)} [DmtDAlaGlyPheMetProLeuTrpNHBn(CF3)2 (TY032)] had an inhibition constant Ki of 0.008 nM.

Molecule YAGFMPLW (D-Ala at 2; Met(O) (oxidized methionine) at 5; C-terminal O-3,5-Bn(CF3)2 ester) [TyrDAlaGlyPheMet(O)ProLeuTrpOBn(CF3)2 (TY023)] had a Ki of 0.00015 nM.

Another assay deals with T3, rat NK1 receptor (rat, UniProt P14600 1-407).
T3 construct: whole, on cells; Used as membrane preparations of transfected CHO cells; also called rNK1; rat neurokinin-1 receptor
T3 sequence (P14600 whole entry): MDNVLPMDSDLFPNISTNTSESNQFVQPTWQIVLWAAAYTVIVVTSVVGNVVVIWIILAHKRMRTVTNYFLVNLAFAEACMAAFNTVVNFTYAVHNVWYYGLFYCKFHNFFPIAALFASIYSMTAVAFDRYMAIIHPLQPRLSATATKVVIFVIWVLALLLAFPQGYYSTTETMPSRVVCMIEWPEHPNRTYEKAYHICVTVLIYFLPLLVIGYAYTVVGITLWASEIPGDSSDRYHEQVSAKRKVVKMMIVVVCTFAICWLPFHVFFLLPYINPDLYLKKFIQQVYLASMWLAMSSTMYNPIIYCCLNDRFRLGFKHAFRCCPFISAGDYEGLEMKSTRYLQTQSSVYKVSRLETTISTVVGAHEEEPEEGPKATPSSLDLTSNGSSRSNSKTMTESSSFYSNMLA
Put plainly: radioligand competition vs [3H]substance P, membranes of rNK1 CHO cells.
For Y[dA]GFMPLW-{NH(3,5-(CF3)2-benzyl)} [TyrDAlaGlyPheMetProLeuTrpNHBn(CF3)2 (TY027)], the Ki was found to be 7.27 nM.

Y[dA]GFMPLW-{NMe(benzyl)} [TyrDAlaGlyPheMetProLeuTrpNMeBn (TY026)] gave an inhibitory constant (Ki) of 44.5 nM.

As to Y[dA]GFMPLW-{NMeBn(CF3)2} [TyrDAlaGlyPheMetProLeuTrpNMeBn(CF3)2 (TY028)], the affinity corresponds to a Ki of 2.01 nM.

As to [Dmt][dA]GFMPLW-{NH(3,5-(CF3)2-benzyl)} [DmtDAlaGlyPheMetProLeuTrpNHBn(CF3)2 (TY032)], the Ki came out at 2.3 nM. This Ki and that of the molecule before are within 1.5-fold of each other.

For YAGFMPLW (D-Ala at 2; Met(O) (oxidized methionine) at 5; C-terminal O-3,5-Bn(CF3)2 ester) [TyrDAlaGlyPheMet(O)ProLeuTrpOBn(CF3)2 (TY023)], the Ki came to 0.2 nM. This Ki is about 11-fold lower than that of the molecule before.

Y[dA]GFMPLW-{OBn(OMe)2} [TyrDAlaGlyPheMetProLeuTrpOBn(OMe)2 (TY030)] gave a Ki of 9.53 nM.

Y[dA]GFMPLW-{OBzl(3,5-(CF3)2)} [TyrDAlaGlyPheMetProLeuTrpOBn(CF3)2 (TY005)] registered a Ki of 0.29 nM.

Consider Y[dC]GFCPLW-{NH(3,5-(CF3)2-benzyl)} (disulfide 2-5, also called [D-Cys2, Cys5]) [Tyr[DCysGlyPheCys]ProLeuTrpNHBn(CF3)2 (TY039)], for which the Ki is 556 nM.

Values taken from patent US8026218 (UNIVERSITY OF ARIZONA, dated 2011).
